According to patent US20260109742A1 (LUMEN BIOSCIENCE, published 2026):
Substitutions are numbered along the chain they refer to. Numbers in names are those of the source.

B1: PP1895 (S3B-C8_smAKAP-C70S_C78S_S3B-C8_H6) (bispecific antibody)
chain: MSGQVQLVESGGGLVQPGGSLRLSCAASGSIENIERMHWYRQAPGKQRELVAVIDSGGTTRYADSVKGRFTISRDNAKNTVYLQMNSLKPEDTAVYYCAAVWLTNAESTQEYWGQGTQVTVSSGGTVILEYAHRLSQDILSDALQQWASSGGGGSGGGGGQVQLVESGGGLVQPGGSLRLSCAASGSIENIERMHWYRQAPGKQRELVAVIDSGGTTRYADSVKGRFTISRDNAKNTVYLQMNSLKPEDTAVYYCAAVWLTNAESTQEYWGQGTQVTVSSGGSHHHHHH
B2: PP2455 (myctag-S3b-C8-smAKAP_R63E_C70S_C78G-S3b-C8-H6) (bispecific antibody)
chain: MEQKLISEEDLSGGQVQLVESGGGLVQPGGSLRLSCAASGSIENIERMHWYRQAPGKQRELVAVIDSGGTTRYADSVKGRFTISRDNAKNTVYLQMNSLKPEDTAVYYCAAVWLTNAESTQEYWGQGTQVTVSSGGGGSTVILEYAHELSQDILSDALQQWAGGGSGSQVQLVESGGGLVQPGGSLRLSCAASGSIENIERMHWYRQAPGKQRELVAVIDSGGTTRYADSVKGRFTISRDNAKNTVYLQMNSLKPEDTAVYYCAAVWLTNAESTQEYWGQGTQVTVSSHHHHHH
notes: also called R63E mutant
B3: PP2456 (myctag-S3b-C8-smAKAP_R63E_C70S_W76S_C78G-S3b-C8-H6) (bispecific antibody)
chain: B2 chain with W161S
notes: also called pp 2456 (W76S)

Experiments:
[1] = target: PP1113 (MBP-5HVZ-PAPA-RN-29-H6); experiment: hydrabody complex of smAKAP-linked VHH dimer with 5HVZ homodimer
Procedure: Briefly, to Assess in vitro protease stability of clones, purified protein samples were prepared at 0.2 mg/mL in protease digestion buffer (20 mM Bis-Tris, 150 mM NaCl, 3 mM CaCl2 pH 6.0). The protease enzymes trypsin and chymotrypsin were diluted from 1 mg/mL stalk concentration to 0.2 mg/mL in protease digest buffer. Both the protein and enzyme were diluted 1:10 in protease digestion buffer. The digestion reactions were conducted by mixing 30 μL of diluted protein and 30 μL of diluted protease. The reactions were mixed by centrifugation for 30 seconds at high speed and incubated at 37° C. for 60 minutes with shaking at 900 rpm in an Eppendorf ThermoMixer. Reactions were quenched with an equal volume of stop buffer containing 2 mM PMSF and 2× Pierce protease inhibitor minitablet in PBS. The final concentration of each VHH homodimer after protease neutralization was 0.1 mg/mL. Samples were kept on ice for ELISA assay.
Digested protein samples were analyzed for binding activity via ELISA. High-binding ELISA plates were coated with 100 μl/well of 1 μg/mL SARS-COV-2 RBD in CBC binding buffer and incubated overnight at 4° C. Plates were washed 3× with PBS supplemented with 0.05% Tween-20 (PBS-tw), then blocked for 1 hour with 300 μl/well of blocking buffer (PBS-tw supplemented with 5% Non-fat dried milk). […] Absorbance was read at 450 nm with a Spectra Max M5 plate reader.

[2] = target: PP1113 (MBP-5HVZ-PAPA-RN-29-H6); experiment: analytical SEC, 5HVZ dimer with smAKAP clone at 1:2 molar ratio

Row | Binder | binding result [1] | binding result [2]
1 | B1 | binds | 
2 | B2 |  | binds
3 | B3 |  | binds
